Measurements: IntAct's records for PubMed 26297806

B1: Progesterone-induced-blocking factor 1 (Homo sapiens), Q8WXW3 (parent)
chain: MSRKISKESKKVNISSSLESEDISLETTVPTDDISSSEEREGKVRITRQLIERKELLHNIQLLKIELSQKTMMIDNLKVDYLTKIEELEEKLNDALHQKQLLTLRLDNQLAFQQKDASKYQELMKQEMETILLRQKQLEETNLQLREKAGDVRRNLRDFELTEEQYIKLKAFPEDQLSIPEYVSVRFYELVNPLRKEICELQVKKNILAEELSTNKNQLKQLTETYEEDRKNYSEVQIRCQRLALELADTKQLIQQGDYRQENYDKVKSERDALEQEVIELRRKHEILEASHMIQTKERSELSKEVVTLEQTVTLLQKDKEYLNRQNMELSVRCAHEEDRLERLQAQLEESKKAREEMYEKYVASRDHYKTEYENKLHDELEQIRLKTNQEIDQLRNASREMYERENRNLREARDNAVAEKERAVMAEKDALEKHDQLLDRYRELQLSTESKVTEFLHQSKLKSFESERVQLLQEETARNLTQCQLECEKYQKKLEVLTKEFYSLQASSEKRITELQAQNSEHQARLDIYEKLEKELDEIIMQTAEIENEDEAERVLFSYGYGANVPTTAKRRLKQSVHLARRVLQLEKQNSLILKDLEHRKDQVTQLSQELDRANSLLNQTQQPYRYLIESVRQRDSKIDSLTESIAQLEKDVSNLNKEKSALLQTKNQMALDLEQLLNHREELAAMKQILVKMHSKHSENSLLLTKTEPKHVTENQKSKTLNVPKEHEDNIFTPKPTLFTKKEAPEWSKKQKMKT
partner: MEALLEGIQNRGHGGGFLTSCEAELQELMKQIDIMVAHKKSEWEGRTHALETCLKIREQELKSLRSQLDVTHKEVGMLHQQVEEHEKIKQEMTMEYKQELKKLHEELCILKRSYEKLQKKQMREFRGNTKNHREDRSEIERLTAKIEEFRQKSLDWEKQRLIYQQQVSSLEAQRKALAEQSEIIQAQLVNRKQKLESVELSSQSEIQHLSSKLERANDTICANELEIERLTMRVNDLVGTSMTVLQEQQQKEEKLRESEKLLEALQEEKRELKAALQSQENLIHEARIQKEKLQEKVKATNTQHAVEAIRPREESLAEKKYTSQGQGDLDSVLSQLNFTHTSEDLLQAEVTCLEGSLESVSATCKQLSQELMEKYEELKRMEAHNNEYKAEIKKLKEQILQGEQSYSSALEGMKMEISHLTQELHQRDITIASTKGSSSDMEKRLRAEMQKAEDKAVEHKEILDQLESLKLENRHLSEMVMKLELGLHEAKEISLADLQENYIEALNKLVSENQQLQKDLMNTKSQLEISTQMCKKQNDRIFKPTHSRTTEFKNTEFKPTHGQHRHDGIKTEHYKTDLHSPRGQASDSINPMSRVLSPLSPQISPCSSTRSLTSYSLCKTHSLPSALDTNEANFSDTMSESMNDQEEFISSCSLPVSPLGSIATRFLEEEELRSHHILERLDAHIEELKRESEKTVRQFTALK

Variants of: B1
Conditions: with cep63_human CEP63, Q96MT8

Row | effect of a mutation on the interaction | Variant
1 | disrupting interaction strength | E89Q
